Patent US20210355229A1 (JIANGSU HENGRUI MEDICINE, published 2021)
Read-outs that look alike come from different tables or passages of the source.

Columns and labels:
[1] = target: T1, human OX40-FC-biotin (human OX40 recombinant protein with Fc tag, Acro Biosystems OX40-H5255, labeled with … (human, UniProt P43489 29-216, labeled with biotin (site not stated))); experiment: capture ELISA, biotin-OX40-Fc
T1 construct: range 29-216; Bought (Acro Biosystems OX40-H5255; printed once as OXO-H5255), expressed in HEK293; also called human Bio-OX40-FC; not shown: Fc tag of the bought protein
T1 sequence (looked up): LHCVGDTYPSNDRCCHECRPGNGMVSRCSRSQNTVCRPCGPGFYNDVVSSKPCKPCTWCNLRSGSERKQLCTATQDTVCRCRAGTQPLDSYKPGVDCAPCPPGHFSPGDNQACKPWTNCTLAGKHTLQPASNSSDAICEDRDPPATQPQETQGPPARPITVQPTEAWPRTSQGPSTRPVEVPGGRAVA
Description: 20xPBS buffer was diluted to 1 xwith deionized water. […] 100 μL of the diluted primary antibody was added to each well (the antibody to be tested was 5-fold diluted from the concentration of 10000 ng/ml, resulting in seven gradients, namely 10000 ng/ml, 2000 ng/ml, 400 ng/ml, 80 ng/ml, 16 ng/ml, 3.2 ng/ml, and 0.64 ng/ml, blank wells merely contained dilution solution, i.e., 2.5% skimmed milk in PBST), and incubated at 37° C. for 40 minutes. The plate was washed for 4 times with PBST, human OX40-FC-biotin (Acro biosystem, OXO-H5255, labeled biotin) was diluted with 2.5% skimmed milk in PBST, 100 μl was added to each well, incubated at 37° C. for 40 min, and the plate was washed for 4 times with PB ST. 100 μL TMB developing solution was added to each well, incubated for 3-15 minutes in dark at room temperature, 50 μl stop solution (1M sulfuric acid) was added to each well. The parameters were set for the microplate reader, the OD value was read at 450-630nm, and the test data were saved.

[2] = target: T2, human OX40 on Jurkat-NF-Kb luc-hOX40 cells (human, UniProt P43489 29-277); experiment: cell-based or functional assay
T2 sequence (looked up): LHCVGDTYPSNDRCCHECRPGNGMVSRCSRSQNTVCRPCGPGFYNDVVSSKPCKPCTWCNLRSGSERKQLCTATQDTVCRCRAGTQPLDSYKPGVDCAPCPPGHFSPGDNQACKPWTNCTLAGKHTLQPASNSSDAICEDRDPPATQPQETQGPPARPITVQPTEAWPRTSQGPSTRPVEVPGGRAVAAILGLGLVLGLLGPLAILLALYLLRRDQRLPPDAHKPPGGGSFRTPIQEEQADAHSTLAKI

[3] = target: T3, human OX40 (antigen of the ELISA of Example 4) (human, UniProt P43489 29-216, limits assumed); experiment: ELISA on human OX40 (Example 4, steps as in Example 2), OD450 against log concentration of antibody
T3 construct: either human OX40-His or human OX40-Fc-biotin
T3 sequence (looked up): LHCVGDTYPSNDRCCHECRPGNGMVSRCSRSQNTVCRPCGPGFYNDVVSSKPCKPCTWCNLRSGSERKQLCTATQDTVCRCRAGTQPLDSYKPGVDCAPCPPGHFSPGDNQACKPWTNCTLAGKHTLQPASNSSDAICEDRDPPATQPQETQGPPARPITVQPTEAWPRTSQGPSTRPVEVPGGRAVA

[4] = target: T3, human OX40 (antigen of the ELISA of …); experiment: as above; remark: listed apart in the source

Binder | EC50 [1] [µg/mL] | binding result [1] | further results
humanized antibody 2G3-hu6 (antibody, human IgG1, V domains shown, hu2G3 VH1.2 + hu2G3 VL1) VH: QVQLQESGPGLVKPSQTLSLTCTVSGFSLSRYSVHWVRQPPGKGLEWIGMIWDGGNTDYAAPVKGRFTISRDDSKNTLYLQMNSLKTEDTAVYYCARNPLYFSYAMDYWGQGTLVTVSS VL: DIQMTQSPSSLSASVGDRVTITCRASQDISNYLNWYQQKPDQSPKLLIIYTSRLQSGVPSRFSGSGSGTDYTLTISSLQPEDFATYYCQQVNTFPFTFGQGTKLEIK | 0.82 | – | –
humanized antibody 2G3-hu2 (antibody, human IgG1, V domains shown, hu2G3 VH2 + hu2G3 VL1) VH: QVQLQESGPGLVKPSETLSLTCTVSGGSISRYSVHWIRQPPGKGLEWIGMIWDGGNTDYNSALKSRVTISVDTSKNQFSLKLSSVTAADTAVYYCARNPLYFSYAMDYWGQGTLVTVSS VL: DIQMTQSPSSLSASVGDRVTITCRASQDISNYLNWYQQKPDQSPKLLIIYTSRLQSGVPSRFSGSGSGTDYTLTISSLQPEDFATYYCQQVNTFPFTFGQGTKLEIK | 1.6 | – | –
humanized antibody 2G3-hu4 (antibody, human IgG1, V domains shown, hu2G3 VH2 + hu2G3 VL2) VH: QVQLQESGPGLVKPSETLSLTCTVSGGSISRYSVHWIRQPPGKGLEWIGMIWDGGNTDYNSALKSRVTISVDTSKNQFSLKLSSVTAADTAVYYCARNPLYFSYAMDYWGQGTLVTVSS VL: DIQMTQSPSSLSASVGDRVTITCRASQDISNYLNWYQQKPGKAPKLLIYYTSRLQSGVPSRFSGSGSGTDYTLTISSLQPEDFATYYCQQVNTFPFTFGQGTKLEIK | 2.27 | – | –
chimeric antibody Ch2G3 (antibody, V domains shown) VH: QVQLKESGPGLVASSQSLSITCTVSGFSLSRYSVHWVRQPPGKGLEWLGMIWDGGNTDYNSALKSRLSISKDNSKSQVFLKMNSLQTDDTAMYYCARNPLYFSYAMDYWGQGTSVTVSS VL: DIQMTQSTSSLSASLGDRVTISCRASQDISNYLNWYQQKPDGTVKLLIIYTSRLQSGVPSRFSGSGSGTDYSLTISNLEQEDIATYFCQQVNTFPFTFGSGTKLEIK | – | – | EC50 (nM), in vitro activation of reporter gene (luciferase, Jurkat-NF-Kb luc-hOX40 cells with Raji cells, anti-CD3 coated) [2]: 0.637 nM; EC50 (read off the curve) [3]: ~0.01 µg/mL
murine monoclonal antibody m2G3 (antibody, V domains shown, Murine hybridoma monoclonal) VH: QVQLKESGPGLVASSQSLSITCTVSGFSLSRYSVHWVRQPPGKGLEWLGMIWDGGNTDYNSALKSRLSISKDNSKSQVFLKMNSLQTDDTAMYYCARNPLYFSYAMDYWGQGTSVTVSS VL: DIQMTQSTSSLSASLGDRVTISCRASQDISNYLNWYQQKPDGTVKLLIIYTSRLQSGVPSRFSGSGSGTDYSLTISNLEQEDIATYFCQQVNTFPFTFGSGTKLEIK | 0.867 | – | EC50 (read off the curve) [3]: ~0.03 µg/mL
murine monoclonal antibody m4B5 (antibody, V domains shown, Murine hybridoma monoclonal) VH: QVQLKQSGPGLVQPSQSLSITCTVSGFSLTSYGLHWFRQSPGKGLEWLGVIWSGGSTDYNAAFISRLSISKDDSKSQVFFKMNSLQADDTAIYYCAREEYDVWGTGTTVTVSS VL: DIQMTQTASSLSASLGDRVTISCRASQDISNYLNWYQQKPDGTVKLLIYYTSRLHSGVPSRFSGSGSGTDYSLTISNLEQEDVATYFCQQGNTLPWTFGGGTKLEIK | 0.58 | – | EC50 (read off the curve) [4]: ~0.04 µg/mL
chimeric antibody Ch4B5 (antibody, V domains shown) VH: QVQLKQSGPGLVQPSQSLSITCTVSGFSLTSYGLHWFRQSPGKGLEWLGVIWSGGSTDYNAAFISRLSISKDDSKSQVFFKMNSLQADDTAIYYCAREEYDVWGTGTTVTVSS VL: DIQMTQTASSLSASLGDRVTISCRASQDISNYLNWYQQKPDGTVKLLIYYTSRLHSGVPSRFSGSGSGTDYSLTISNLEQEDVATYFCQQGNTLPWTFGGGTKLEIK | 0.208 | – | EC50 (nM), in vitro activation of reporter gene (luciferase, Jurkat-NF-Kb luc-hOX40 cells with Raji cells, anti-CD3 coated) [2]: 0.559 nM; EC50 (read off the curve) [4]: ~0.02 µg/mL
humanized antibody hu4B5-V18 (antibody, human IgG1, V domains shown, hu4B5 VH0 + hu4B5 VL3; human IgG1 / human Kappa constant regions) VH: QVQLQESGPGLVKPSETLSLTCTVSGFSLTSYGLHWIRQPPGKGLEWIGVIWSGGSTDYNAAFISRVTISVDTSKNQFSLKLSSVTAADTAVYYCAREEYDVWGQGTTVTVSS VL: DIQMTQSPSSLSASVGDRVTITCRASQDISNYLNWYQQKPGGVPKLLIYYTSRLHSGVPSRFSGSGSGTDYTLTISSLQQEDVATYYCQQGNTLPWTFGGGTKVEIK | – | binds | –
humanized antibody 2G3-hu3 (antibody, human IgG1, V domains shown, hu2G3 VH1 + hu2G3 VL2) VH: QVQLQESGPGLVKPSETLSLTCTVSGYSISRYSVHWVRQPPGKGLEWIGMIWDGGNTDYNSALKSRFTISRDNSKNTLYLQMNSLRAEDTAVYYCARNPLYFSYAMDYWGQGTLVTVSS VL: DIQMTQSPSSLSASVGDRVTITCRASQDISNYLNWYQQKPGKAPKLLIYYTSRLQSGVPSRFSGSGSGTDYTLTISSLQPEDFATYYCQQVNTFPFTFGQGTKLEIK | – | binds | –
humanized antibody 2G3-hu5 (antibody, human IgG1, V domains shown, hu2G3 VH1.1 + hu2G3 VL2) VH: QVQLQESGPGLVKPSETLSLTCTVSGYSISRYSVHWVRQPPGKGLEWIGMIWDGGNTDYNAALKSRFTISRDNAKNTLYLQMNSLRAEDTAVYYCARNPLYFSYAMDYWGQGTLVTVSS VL: DIQMTQSPSSLSASVGDRVTITCRASQDISNYLNWYQQKPGKAPKLLIYYTSRLQSGVPSRFSGSGSGTDYTLTISSLQPEDFATYYCQQVNTFPFTFGQGTKLEIK | – | binds | –
humanized antibody 2G3-hu7 (antibody, human IgG1, V domains shown, hu2G3 VH1.2 + hu2G3 VL2) VH: QVQLQESGPGLVKPSQTLSLTCTVSGFSLSRYSVHWVRQPPGKGLEWIGMIWDGGNTDYAAPVKGRFTISRDDSKNTLYLQMNSLKTEDTAVYYCARNPLYFSYAMDYWGQGTLVTVSS VL: DIQMTQSPSSLSASVGDRVTITCRASQDISNYLNWYQQKPGKAPKLLIYYTSRLQSGVPSRFSGSGSGTDYTLTISSLQPEDFATYYCQQVNTFPFTFGQGTKLEIK | 0.743 | – | –
humanized antibody hu4B5-V22 (antibody, human IgG1, V domains shown, hu4B5 VH0 + hu4B5 VL4; human IgG1 / human Kappa constant regions) VH: QVQLQESGPGLVKPSETLSLTCTVSGFSLTSYGLHWIRQPPGKGLEWIGVIWSGGSTDYNAAFISRVTISVDTSKNQFSLKLSSVTAADTAVYYCAREEYDVWGQGTTVTVSS VL: DIQMTQSPSSLSASVGDRVTITCRASQDISNYLNWYQQKPGGTVKLLIYYTSRLHSGVPSRFSGSGSGTDYTLTISSLQPEDVATYFCQQGNTLPWTFGGGTKVEIK | – | binds | –
humanized antibody 2G3-hu1 (antibody, human IgG1, V domains shown, hu2G3 VH1 + hu2G3 VL1) VH: QVQLQESGPGLVKPSETLSLTCTVSGYSISRYSVHWVRQPPGKGLEWIGMIWDGGNTDYNSALKSRFTISRDNSKNTLYLQMNSLRAEDTAVYYCARNPLYFSYAMDYWGQGTLVTVSS VL: DIQMTQSPSSLSASVGDRVTITCRASQDISNYLNWYQQKPDQSPKLLIIYTSRLQSGVPSRFSGSGSGTDYTLTISSLQPEDFATYYCQQVNTFPFTFGQGTKLEIK | 0.886 | – | –
humanized antibody hu4B5-V21 (antibody, human IgG1, V domains shown, hu4B5 VH3 + hu4B5 VL3; human IgG1 / human Kappa constant regions) VH: QVQLKESGPGLVKPSETLSLTCTVSGFSLTSYGLHWFRQPPGKGLEWIGVIWSGGSTDYNAAFISRVTISKEDSKSQVSLKLSSVTAADTAVYYCAREEYDVWGQGTTVTVSS VL: DIQMTQSPSSLSASVGDRVTITCRASQDISNYLNWYQQKPGGVPKLLIYYTSRLHSGVPSRFSGSGSGTDYTLTISSLQQEDVATYYCQQGNTLPWTFGGGTKVEIK | – | binds | –
humanized antibody hu4B5-V25 (antibody, human IgG1, V domains shown, hu4B5 VH3 + hu4B5 VL4; human IgG1 / human Kappa constant regions) VH: QVQLKESGPGLVKPSETLSLTCTVSGFSLTSYGLHWFRQPPGKGLEWIGVIWSGGSTDYNAAFISRVTISKEDSKSQVSLKLSSVTAADTAVYYCAREEYDVWGQGTTVTVSS VL: DIQMTQSPSSLSASVGDRVTITCRASQDISNYLNWYQQKPGGTVKLLIYYTSRLHSGVPSRFSGSGSGTDYTLTISSLQPEDVATYFCQQGNTLPWTFGGGTKVEIK | – | binds | –
humanized antibody hu4B5-V19 (antibody, human IgG1, V domains shown, hu4B5 VH1 + hu4B5 VL3; human IgG1 / human Kappa constant regions) VH: QVQLQESGPGLVKPSETLSLTCTVSGFSLTSYGLHWIRQPPGKGLEWIGVIWSGGSTDYNAAFISRVTISKEDSKNQFSLKLSSVTAADTAVYYCAREEYDVWGQGTTVTVSS VL: DIQMTQSPSSLSASVGDRVTITCRASQDISNYLNWYQQKPGGVPKLLIYYTSRLHSGVPSRFSGSGSGTDYTLTISSLQQEDVATYYCQQGNTLPWTFGGGTKVEIK | – | binds | –
humanized antibody hu4B5-V23 (antibody, human IgG1, V domains shown, hu4B5 VH1 + hu4B5 VL4; human IgG1 / human Kappa constant regions) VH: QVQLQESGPGLVKPSETLSLTCTVSGFSLTSYGLHWIRQPPGKGLEWIGVIWSGGSTDYNAAFISRVTISKEDSKNQFSLKLSSVTAADTAVYYCAREEYDVWGQGTTVTVSS VL: DIQMTQSPSSLSASVGDRVTITCRASQDISNYLNWYQQKPGGTVKLLIYYTSRLHSGVPSRFSGSGSGTDYTLTISSLQPEDVATYFCQQGNTLPWTFGGGTKVEIK | – | binds | –
